In patent US20220267427A1 (SYSMEX, published 2022):
Where no end group is shown, it is not given here. The star is where a group is joined. Biotin = O=C1N[C@H]2[C@H](CS[C@H]2CCCCC(=O)*)N1

T1: Peptide 2 (human)
T1 construct: Synthetic peptide; lacks the C-terminal aspartic acid of Peptide 1
T1 peptide: {BSA}-RRLLEDGEDFNLGDAL

T2: rfCK18 (239-396) (human, UniProt P05783 239-396)
T2 construct: Bought (Cloud-Clone-Corp.); captured through an anti-GST or penta HIS antibody, the tag is not described
T2 sequence: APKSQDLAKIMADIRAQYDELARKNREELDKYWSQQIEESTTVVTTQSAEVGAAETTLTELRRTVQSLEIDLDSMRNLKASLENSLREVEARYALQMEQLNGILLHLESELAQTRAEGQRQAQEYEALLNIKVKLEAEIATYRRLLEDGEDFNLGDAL

T3: fCK18 in apoptosis-induced HepG2 cell culture supernatant (human, UniProt P05783 239-397)
T3 construct: Natural CK18 fragment from the culture supernatant of apoptosis-induced HepG2 cells (band around 18 KDa); also called fCK18 in apoptosis-inducing cells
T3 sequence: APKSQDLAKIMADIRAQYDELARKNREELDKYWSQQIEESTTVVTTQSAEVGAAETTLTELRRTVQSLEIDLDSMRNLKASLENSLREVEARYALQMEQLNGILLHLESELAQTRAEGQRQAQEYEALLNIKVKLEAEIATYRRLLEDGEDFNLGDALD

T4: Peptide 24 (human)
T4 peptide: Biotin-ALLNIKVKLEAEIATYRR

T5: Peptide 23 (human)
T5 peptide: Biotin-QAQEYEALLNIKVKLEAE

T6: Peptide 22 (human)
T6 peptide: Biotin-RAEGQRQAQEYEALLNIK

T7: Peptide 27 (human)
T7 peptide: Biotin-LLEDGEDFNLGDALD

T8: Peptide 26 (human)
T8 peptide: Biotin-IATYRRLLEDGEDFNLGD

T9: Peptide 20 (human)
T9 peptide: Biotin-ILLHLESELAQTRAEGQR

T10: Peptide 19 (human)
T10 peptide: Biotin-MEQLNGILLHLESELAQT

T11: Peptide 25 (human)
T11 peptide: Biotin-VKLEAEIATYRRLLEDGE

T12: Peptide 21 (human)
T12 peptide: Biotin-SELAQTRAEGQRQAQEYE


Legend:
Peptide 2 = target: T1, Peptide 2; assay: solid phase ELISA, BSA-conjugated peptide on plate
Experimental: (1) BSA was added to the N-terminus of Peptide 1 and Peptide 2. (2) Each peptide was added to an ELISA plate at 5 μg/mL and 100 μL/well, and the plate was allowed to stand at 4° C. overnight to immobilize the peptide. Thereafter, the plate was washed three times with PBST, and Buffer I′ (10 mM NaH₂PO₄.2H₂O, 149.7 mM NaCl, 2.5 mM EDTA 2Na, 0.10% BSA, pH 7.0) was added thereto at 200 μL/well to prepare a plate stored at 4° C. overnight. […] (5) The plate was washed three times with PBST, and 15000-fold diluted Peroxidase-conjugated Affinipure F(ab)′2 Fragment Goat Anti-Mouse IgG (H+L) (Jackson) was added thereto at 100 μL/well, followed by shaking at room temperature for 1 hour. (6) The plate was washed three times with PBST, TMB Mix (1-step Ultra TMB-ELISA (Thermo Scientific):3% H₂O₂: Phosphate-Citrate buffer (Sigma)=15:0.15:14.85) was added thereto at 100 μL/well, and the mixture was reacted at room temperature for 10 minutes. Thereafter, 1 M H₂SO₄ was added thereto at 100 μL/well to stop the reaction. (7) Absorbance of the reaction solution at 450 nm was measured with a plate reader.

rfCK18 (239-396) = target: T2, rfCK18 (239-396); assay: solid phase ELISA, antigen captured through anti-GST or penta HIS antibody
Experimental: (1) An ANTI GST antibody or a penta HIS antibody was added to an ELISA plat at 2.5 μg/mL and 50 μL/well, and the plate was allowed to stand at 4° C. overnight to immobilize the antibody. Thereafter, the plate was washed three times with PBST, and Buffer I′ (10 mM NaH₂PO₄.2H₂O, 149.7 mM NaCl, 2.5 mM EDTA 2Na, 0.10% BSA, pH 7.0) was added thereto at 200 μL/well to prepare a plate stored at 4° C. overnight. […] (3) The plate was washed three times with PBST, and 50 μL each of each antigen diluent was added thereto, followed by shaking for 45 minutes. […] (6) The plate was washed three times with PBST, and 15000-fold diluted Peroxidase-conjugated Affinipure F(ab)′2 Fragment Goat Anti-Mouse IgG (H+L) (Jackson) was added thereto at 50 μL/well, followed by shaking for 45 minutes. (7) The plate was washed three times with PBST, TMB Mix (1-step Ultra TMB-ELISA (Thermo Scientific):3% H₂O₂: Phosphate-Citrate buffer (Sigma)=15:0.15:14.85) was added thereto at 100 μL/well, and the mixture was reacted at room temperature for 10 minutes. Thereafter, 1 M H₂SO₄ was added thereto at 100 μL/well to stop the reaction. (8) Absorbance of the reaction solution at 450 nm was measured with a plate reader.

[1] = target: T3, fCK18 in apoptosis-induced HepG2 cell …; assay: plate ELISA with K18-624 magnetic microbeads, K18-328Fab-ALP detector; fCK18 60.73 ng/mL
Experimental: Measurement samples of 3-fold dilution series (3-fold to 6561-fold dilution) were prepared from the apoptosis-induced HepG2 cell culture supernatant with a diluent (TBS, pH 7.5, 2% BSA), and fCK18 was measured. […] Based on the prepared calibration curve, fCK18 in the measurement sample was measured.
This solution was added to an ELISA plate at 25 μL/well, then each measurement sample was added at 25 μL/well, and the plate was incubated (1500 rpm, RT, 20 min). […] (3) After washing the plate, the HISCL (registered trademark) R4 reagent was added thereto at 50 μL/well, and then the mixture was stirred (1500 rpm, RT, 1 min). Thereafter, the HISCL (registered trademark) R5 reagent was added at 100 μL/well, and then the mixture was stirred (1000 rpm, RT, 10 sec). (4) Luminescence intensity was measured with a plate reader.

[2] = target: T3, fCK18 in apoptosis-induced HepG2 cell …; assay: HISCL sandwich immunoassay; K18-624 magnetic microbeads capture, K18-328Fab-ALP detector; fCK18 20.27 ng/mL
Peptide 24 = target: T4, Peptide 24; assay: solid phase ELISA; biotinylated peptide on plate, antibody 2 ug/ml
Peptide 23 = target: T5, Peptide 23; assay: as above
Peptide 22 = target: T6, Peptide 22; assay: as above
Peptide 27 = target: T7, Peptide 27; assay: as above
Peptide 26 = target: T8, Peptide 26; assay: as above
Peptide 20 = target: T9, Peptide 20; assay: as above
Peptide 19 = target: T10, Peptide 19; assay: as above
Peptide 25 = target: T11, Peptide 25; assay: as above
Peptide 21 = target: T12, Peptide 21; assay: as above

Binder | binding result (Peptide 2) | binding result (rfCK18 (239-396)) | S/N ratio [1] | S/N ratio [2] | Abs450 (Peptide 24) | Abs450 (Peptide 23) | Abs450 (Peptide 22) | Abs450 (Peptide 27) | Abs450 (Peptide 26) | Abs450 (Peptide 20) | Abs450 (Peptide 19) | Abs450 (Peptide 25) | Abs450 (Peptide 21)
K18-624 antibody (antibody, V domains shown, Mouse monoclonal antibody from a hybridoma (Balb/C mouse immunised with Peptide 1-KLH)) VH: DVQLVESGGGLVQPGGSRKLSCAASGFTFSSFGMHWVRQAPEKGLEWVAYISSGSTTIYYADTVKGRFTISRDNPKNTLFLQMTSLRSEDTAMYYCARRGMITTGAWFAYWGQGTLVTVSA VL: DILLTQSPAILSVSPGERVSFSCRASQRIGTSIHWYQQRTNGSPRLLIKYASESISGIPSRFSGSGSGTDFTLSINSVESEDIADYYCQQSYIWPFTFGSGTKLEIK | no binding (tested: 5 to 10 ng/mL) | no binding (tested: 5 to 10 ng/mL) | 1850 | 226 |  |  |  |  |  |  |  |  | 
K18-328 antibody (antibody, V domains shown, Mouse monoclonal antibody from a hybridoma (immunogen full length rCK18)) VH: QVHLQQSAAELARPGASVKMSCKASGYTFTNYTIHWIKQRPGQGLEWIGYINPSSGYTDYNQNFKDKTTLTADKSSTTVYMQLSSLTSEDSAVYYCARQIPFAYWGQGTLVTVSA VL: not shown |  |  |  |  | 0.01 | 0.02 | 0 | 0 | 0.01 | 0 | 0.01 | 0.01 | 0.01
